What was measured:
Assay in all cases: FRET or BRET
III3(D838G)-FRET = molecular target: III3(D838G)-FRET
III3(V798D)-FRET = molecular target: III3(V798D)-FRET
III3(V834D)-FRET = molecular target: III3(V834D)-FRET
[1] = molecular target: III3-FRET (III3 flanked by mYPet and mECFP*)

FRET efficiency of the construct with anastellin (0.18 without) (III3(D838G)-FRET): 0.27
Kd (III3(D838G)-FRET): 490 nM
half time of binding (III3(D838G)-FRET): 60 s
FRET efficiency of the construct with anastellin (0.21 without) (III3(V798D)-FRET): 0.28
Kd (III3(V798D)-FRET): 180 nM
half time of binding (III3(V798D)-FRET): < 1 s
FRET efficiency of the construct with anastellin (0.21 without) (III3(V834D)-FRET): 0.27
Kd (III3(V834D)-FRET): < 50 nM
half time of binding (III3(V834D)-FRET): < 1 s
FRET efficiency of the construct with anastellin (0.19 without) [1]: 0.28
Kd [1]: 210 nM
first order rate constant of binding [1]: 0.02 s⁻¹
half time of binding [1]: 30 s
Substance: anastellin (domain or fragment)

Reference: publication PMC2680933
